Test results reported in the supplement of paper PMC10567573.

B1: CDC14A (parent)
chain: GPHPKSKIENGYPLHAPEAYFPYF

Variants of: B1
Experiment: protein stability index of a GFP-peptide fusion (GPS, HEK-293T) (PSI 1-6); higher = more stable
Conditions: c terminus: a fixed tail appended
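Also: lentivirally expressed fusions sorted by FACS into six bins by GFP to DsRed ratio, PSI derived from sequencing read proportions per bin multiplied by bin number.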

Compared with GPHPKSKIENGYPLRAPEAYFPYF [H15R], GPHPKSKIENGYPLLAPEAYFPYF [H15L] is lower in protein stability index: 2.29 for the first, 1.76 for the second.

Going from GPHPKSKIENGYPLAAPEAYFPYF [H15A] to GPHPKSKIENGYPLYAPEAYFPYF [H15Y], the protein stability index falls from 2.45 to 1.68.

Going from GPHPKSKIENGYPLDAPEAYFPYF [H15D] to GPHPKSKIENGYPLVAPEAYFPYF [H15V], the protein stability index falls from 2.63 to 2.53.

Going from GPHPKSKIENGYPLTAPEAYFPYF [H15T] to GPHPKSKIENGYPLMAPEAYFPYF [H15M], the protein stability index falls from 2.74 to 1.96.

Going from GPHPKSKIENGYPLNAPEAYFPYF [H15N] to GPHPKSKIENGYPLSAPEAYFPYF [H15S], the protein stability index rises from 2.37 to 2.83.

Going from GPHPKSKIENGYPLQAPEAYFPYF [H15Q] to GPHPKSKIENGYPLEAPEAYFPYF [H15E], the protein stability index rises from 1.93 to 2.79.

First: GPHPKSKIENGYPLKAPEAYFPYF [H15K]
Second: GPHPKSKIENGYPLFAPEAYFPYF [H15F]
The protein stability index of the first is higher: 2.7 for the first, 1.7 for the second.

Compared with GPHPKSKIENGYPLGAPEAYFPYF [H15G], GPHPKSKIENGYPLCAPEAYFPYF [H15C] is lower in protein stability index: 2.59 for the first, 2.23 for the second.

Going from GPHPKSKIENGYPLIAPEAYFPYF [H15I] to GPHPKSKIENGYPLWAPEAYFPYF [H15W], the protein stability index falls from 1.87 to 1.2.

Going from GPHPKSKIENGYPLPAPEAYFPYF [H15P] to GPHPKSKIINGYPLHAPEAYFPYF [E9I], the protein stability index falls from 2.57 to 2.2.

Going from GPHPKSKIYNGYPLHAPEAYFPYF [E9Y] to GPHPKSKIVNGYPLHAPEAYFPYF [E9V], the protein stability index rises from 1.64 to 1.81.

Compared with GPHPKSKIKNGYPLHAPEAYFPYF [E9K], GPHPKSKIFNGYPLHAPEAYFPYF [E9F] is higher in protein stability index: 1.44 for the first, 1.77 for the second.

First: GPHPKSKINNGYPLHAPEAYFPYF [E9N]
Second: GPHPKSKILNGYPLHAPEAYFPYF [E9L]
The protein stability index of the first is higher: 1.91 for the first, 1.76 for the second.

Compared with GPHPKSKISNGYPLHAPEAYFPYF [E9S], GPHPKSKIWNGYPLHAPEAYFPYF [E9W] is lower in protein stability index: 2.21 for the first, 1.77 for the second.

Going from GPHPKSKIDNGYPLHAPEAYFPYF [E9D] to GPHPKSKIHNGYPLHAPEAYFPYF [E9H], the protein stability index rises from 1.96 to 2.29.

First: GPHPKSKIMNGYPLHAPEAYFPYF [E9M]
Second: GPHPKSKITNGYPLHAPEAYFPYF [E9T]
The protein stability index of the first is lower: 1.58 for the first, 2.22 for the second.

Compared with GPHPKSKIGNGYPLHAPEAYFPYF [E9G], GPHPKSKIQNGYPLHAPEAYFPYF [E9Q] is lower in protein stability index: 2.31 for the first, 2.02 for the second.

First: GPHPKSKIRNGYPLHAPEAYFPYF [E9R]
Second: GPHPKSKIPNGYPLHAPEAYFPYF [E9P]
The protein stability index of the first is lower: 1.6 for the first, 1.69 for the second.

Compared with GPHPKSKICNGYPLHAPEAYFPYF [E9C], GPHPKSKIANGYPLHAPEAYFPYF [E9A] is lower in protein stability index: 2.09 for the first, 1.92 for the second.

Going from GPHPKSKIENGYPLHAPFAYFPYF [E18F] to GPHPKSKIENGYPLHAPGAYFPYF [E18G], the protein stability index rises from 1.92 to 2.3.

First: GPHPKSKIENGYPLHAPAAYFPYF [E18A]
Second: GPHPKSKIENGYPLHAPDAYFPYF [E18D]
The protein stability index of the first is lower: 2.61 for the first, 2.62 for the second.

First: GPHPKSKIENGYPLHAPCAYFPYF [E18C]
Second: GPHPKSKIENGYPLHAAEAYFPYF [P17A]
The protein stability index of the first is lower: 1.65 for the first, 2.21 for the second.

Compared with GPHPKSKIENGYPLHAEEAYFPYF [P17E], GPHPKSKIENGYPLHADEAYFPYF [P17D] is higher in protein stability index: 2.11 for the first, 2.71 for the second.

First: GPHPKSKIENGYPLHAMEAYFPYF [P17M]
Second: GPHPKSKIENGYPLHATEAYFPYF [P17T]
The protein stability index of the first is lower: 2.07 for the first, 3.15 for the second.

First: GPHPKSKIENGYPLHAFEAYFPYF [P17F]
Second: GPHPKSKIENGYPLHAIEAYFPYF [P17I]
The protein stability index of the first is lower: 1.87 for the first, 2.06 for the second.

Going from GPHPKSKIENGYPLHAKEAYFPYF [P17K] to GPHPKSKIENGYPLHACEAYFPYF [P17C], the protein stability index falls from 3.2 to 2.

Going from GPHPKSKIENGYPLHALEAYFPYF [P17L] to GPHPKSKIENGYPLHAYEAYFPYF [P17Y], the protein stability index falls from 1.97 to 1.79.

Compared with GPHPKSKIENGYPLHAHEAYFPYF [P17H], GPHPKSKIENGYPLHAREAYFPYF [P17R] is lower in protein stability index: 1.84 for the first, 1.8 for the second.

First: GPHPKSKIENGYPLHAGEAYFPYF [P17G]
Second: GPHPKSKIENGYPLHASEAYFPYF [P17S]
The protein stability index of the first is higher: 2.48 for the first, 1.87 for the second.

Going from GPHPKSKIENGYPLHAQEAYFPYF [P17Q] to GPHPKSKIENGYPLHAVEAYFPYF [P17V], the protein stability index falls from 2.14 to 1.92.

Going from GPHPKSKIENGYPLHANEAYFPYF [P17N] to GPHPKSKIENGYPLHAWEAYFPYF [P17W], the protein stability index falls from 2.16 to 2.04.

First: GPHPKSKIERGYPLHAPEAYFPYF [N10R]
Second: GPHPKSKIEDGYPLHAPEAYFPYF [N10D]
The protein stability index of the first is lower: 1.55 for the first, 1.96 for the second.

First: GPHPKSKIEPGYPLHAPEAYFPYF [N10P]
Second: GPHPKSKIEMGYPLHAPEAYFPYF [N10M]
The protein stability index of the first is higher: 2.52 for the first, 2.31 for the second.

First: GPHPKSKIEQGYPLHAPEAYFPYF [N10Q]
Second: GPHPKSKIEWGYPLHAPEAYFPYF [N10W]
The protein stability index of the first is higher: 2.99 for the first, 1.89 for the second.

First: GPHPKSKIETGYPLHAPEAYFPYF [N10T]
Second: GPHPKSKIESGYPLHAPEAYFPYF [N10S]
The protein stability index of the first is lower: 1.82 for the first, 2.97 for the second.

First: GPHPKSKIECGYPLHAPEAYFPYF [N10C]
Second: GPHPKSKIEVGYPLHAPEAYFPYF [N10V]
The protein stability index of the first is lower: 2.05 for the first, 2.06 for the second.

First: GPHPKSKIELGYPLHAPEAYFPYF [N10L]
Second: GPHPKSKIEAGYPLHAPEAYFPYF [N10A]
The protein stability index of the first is lower: 2.19 for the first, 2.51 for the second.

Compared with GPHPKSKIEYGYPLHAPEAYFPYF [N10Y], GPHPKSKIEGGYPLHAPEAYFPYF [N10G] is higher in protein stability index: 1.79 for the first, 2.18 for the second.

First: GPHPKSKIEIGYPLHAPEAYFPYF [N10I]
Second: GPHPKSKIEEGYPLHAPEAYFPYF [N10E]
The protein stability index of the first is lower: 1.63 for the first, 2.29 for the second.

Going from GPHPKSKIEFGYPLHAPEAYFPYF [N10F] to GPHPKSKIEKGYPLHAPEAYFPYF [N10K], the protein stability index rises from 2.51 to 2.65.

Going from GPHPKSKIEHGYPLHAPEAYFPYF [N10H] to GPHPKSKIENGYDLHAPEAYFPYF [P13D], the protein stability index rises from 2.57 to 2.81.

Going from GPHPKSKIENGYTLHAPEAYFPYF [P13T] to GPHPKSKIENGYHLHAPEAYFPYF [P13H], the protein stability index falls from 1.96 to 1.92.

Going from GPHPKSKIENGYMLHAPEAYFPYF [P13M] to GPHPKSKIENGYVLHAPEAYFPYF [P13V], the protein stability index rises from 1.68 to 2.05.

First: GPHPKSKIENGYWLHAPEAYFPYF [P13W]
Second: GPHPKSKIENGYYLHAPEAYFPYF [P13Y]
The protein stability index of the first is lower: 1.58 for the first, 1.88 for the second.

First: GPHPKSKIENGYGLHAPEAYFPYF [P13G]
Second: GPHPKSKIENGYFLHAPEAYFPYF [P13F]
The protein stability index of the first is higher: 2.39 for the first, 1.92 for the second.

Compared with GPHPKSKIENGYLLHAPEAYFPYF [P13L], GPHPKSKIENGYCLHAPEAYFPYF [P13C] is higher in protein stability index: 1.95 for the first, 1.97 for the second.

Compared with GPHPKSKIENGYSLHAPEAYFPYF [P13S], GPHPKSKIENGYELHAPEAYFPYF [P13E] is higher in protein stability index: 2.22 for the first, 2.94 for the second.
